Measurements reported in patent US20230242620A1.
Residue numbers refer to the chain shown, from its start. Numbers in names are those of the source.

B1: Example 1C: (A14P, R39Q, K83R, T91Y, Q108L)-QA (VHH)
VHH: EVQLVESGGGLVQPGGSLRLSCAASGRTFNNYAMGWFRQAPGKEREFVAAITRSGVRSGVSAIYGDSVKDRFTISRDNAKNTLYLQMNSLRPEDTAVYYCAASAIGSGALRRFEYDYSGQGTLVTVSS
B2: Example 1C: (A14P, R39Q, K83R, T91Y, Q108L)-3A (VHH)
VHH: B1 VHH
B3: Nb3.10 (VHH)
VHH: EVQLVESGGGLVQAGGSLRLSCAASRSIGRLDRMGWYRHRPGEPRELVATITGGSSINYGDSVKGRFTISIDNSKNTVYLQMNSLRPEDTAVYYCNFNKYVTSRDTWGQGTLVTVSS
B4: Nb3.11 (VHH)
VHH: B3 VHH with A14P, R86K
B5: Nb3.12 (VHH)
VHH: B3 VHH with L112Q
B6: Nb3.13 (VHH)
VHH: B3 VHH with A14P, L112Q
B7: Nb3.14 (VHH)
VHH: B3 VHH with A14P, T114Q
B8: Nb3.15 (VHH)
VHH: B3 VHH with L11S, A14P
B9: Nb3.1 (VHH)
VHH: B3 VHH with P41T, S62F, S74A, S84N, R86K, L112Q
B10: Nb4.1 (VHH)
VHH: EVQLVESGGGLVQPGGSLRLSCAASGSVFKINVMAWYRQAPGKGRELVAGIISGGSTSYADSVKGRFTISRDNAKNTLYLQMNSLRPEDTAVYYCAFITTESDYDLGRRYWGQGTLVTVSS
B11: Nb6.2 (VHH)
VHH: EVQLVESGGGLVQPGGSLRLSCIASGLPFSTKSMGWFRQAPGKEREFVARISPGGTSRYYGDFVKGRFAISRDNAKNTTWLQMNSLKAEDTAVYYCASGERSTYIGSNYYRTNEYDYWGTGTQVTVSS
B12: Nb6.5 (VHH)
VHH: EVQLLESGGGLVQPGGSLRLSCAASGLPFSTKSMGWFRQAPGKGREFVSRISPGGTSRYYGDFVKGRFTISRDNSKNTLYLQMNSLRAEDTAVYYCASGERSTYIGSNYYRTNEYDYWGQGTLVTVSS
B13: Example 1C: wildtype (VHH)
VHH: B1 VHH with P14A, Q39R, R91K, Y99T, L123Q
B14: Example 1C: (A14P) (VHH)
VHH: B1 VHH with Q39R, R91K, Y99T, L123Q
B15: Example 1C: (K83R) (VHH)
VHH: B1 VHH with P14A, Q39R, Y99T, L123Q
B16: Example 1C: (Q108L) (VHH)
VHH: B1 VHH with P14A, Q39R, R91K, Y99T
B17: Example 1C: (A14P, K83R, Q108L) (VHH)
VHH: B1 VHH with Q39R, Y99T
B18: Example 1c: (A14P, R39Q, K83R,T91Y, Q108L) (VHH)
VHH: B1 VHH

Legend:
[1] = biological target: affinity purified antibody IHuP#002-001-ABL-08; assay: ECL bridging/competition assay, 10 ug/ml ISV, 400 ng/ml antibody, labelled SEQ ID NO:1
[2] = biological target: serum sample IHUS#B09032311A3 (pre-existing antibodies against ISV); assay: ECL drug displacement assay, variant as competitor against labelled SEQ ID NO:1
[3] = biological target: serum sample IHUS#B09032311A1; assay: as above
[4] = biological target: serum sample IHUS#B09032311A20 (pre-existing antibodies against ISV); assay: as above
[5] = biological target: analytical polyclonal antibody generated in Example 2; assay: SPR Biacore T100, polyclonal immobilized, 500 nM ISV, RU at end of injection

Binder | % reduction [1] [%] | ECLU confirmatory assay [1] [ECLU] | % reduction [2] [%] | ECLU confirmatory assay [2] [ECLU] | % reduction [3] [%] | ECLU confirmatory assay [3] [ECLU] | % reduction [4] [%] | ECLU confirmatory assay [4] [ECLU] | Binding (RU) [5] [RU]
B1 | 58.6 | 1210 | 18 | 1810 | 3 | 60 | 18 | 15100 | –
B2 | -13.1 | 3300 | 13 | 1930 | 0 | 62 | 18 | 15200 | –
B3 | – | – | – | – | – | – | – | – | 91
B4 | – | – | – | – | – | – | – | – | 88
B5 | – | – | – | – | – | – | – | – | 86
B6 | – | – | – | – | – | – | – | – | 90
B7 | – | – | – | – | – | – | – | – | 79
B8 | – | – | – | – | – | – | – | – | 22
B9 | – | – | – | – | – | – | – | – | 2
B10 | – | – | – | – | – | – | – | – | 51
B11 | – | – | – | – | – | – | – | – | 39
B12 | – | – | – | – | – | – | – | – | 66
B13 | 7.3 | 2710 | 20 | 1780 | 4 | 60 | 53 | 8680 | –
B14 | 90.8 | 268 | 91 | 205 | 10 | 56 | 96 | 668 | –
B15 | 15.7 | 2460 | 37 | 1400 | 1 | 62 | 63 | 6910 | –
B16 | 13.2 | 2530 | 31 | 1530 | 5 | 59 | 62 | 6990 | –
B17 | 89.1 | 319 | 93 | 156 | 8 | 57 | 97 | 628 | –
B18 | 91.4 | 251 | 90 | 228 | 6 | 58 | 97 | 570 | –
